The text below walks through data of publication PMC12650144, “Interactive Role of the DHPR β1a SH3 Domain in Skeletal Muscle Excitation–Contraction Coupling” (Biomolecules, 2025).

Experiment [1] has as its target T1, DHPR β1a subunit, full length (mouse, UniProt Q8R3Z5-4 1-524).
T1 construct: mouse voltage-gated calcium channel (DHPR) β1a subunit, NCBI NM_031173, full length; also called β1a-FL; full-length β1a; source: E. coli BL21, purified (Ni-agarose, ubiquitin removed, preparative electrophoresis); not shown: polyhistidine-tagged ubiquitin, N-terminal, cleaved
As to the kind of experiment: other fluorescence titration; tryptophan fluorescence quenching: intrinsic fluorescence of the β subunit or β1a-SH3 domain in the cuvette (sub-micromolar; 50 nM β1a-FL for the AID titration) monitored while titrating the II-III loop or peptides; excitation 280 nm, emission 340 nm; corrected for dilution and intrinsic fluorescence of the titrant; nonlinear regression. The note with it: both partners purified.

Experiment [2] concerns the target T2, DHPR β1a SH3 domain (β1a residues V101-P272) (mouse, UniProt Q8R3Z5-4 101-272).
T2 construct: mouse DHPR β1a subunit, NCBI NM_031173, residues V101-P272 (split SH3 domain with the hook region); also called β1a–SH3 Domain (Residues 101–272); β1a SH3 protein; not shown: polyhistidine-tagged ubiquitin, N-terminal, cleaved
The experiment is described as above. The following applies: both partners purified.

T2 sequence (Q8R3Z5 other isoform, or with tags, fused parts or gaps): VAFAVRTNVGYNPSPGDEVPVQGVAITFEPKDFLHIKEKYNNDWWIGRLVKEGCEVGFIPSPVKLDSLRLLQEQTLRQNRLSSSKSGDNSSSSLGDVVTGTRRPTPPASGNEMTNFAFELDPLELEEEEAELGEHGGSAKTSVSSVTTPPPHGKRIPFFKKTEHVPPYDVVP
T1 sequence (Q8R3Z5 other isoform, or with tags, fused parts or gaps): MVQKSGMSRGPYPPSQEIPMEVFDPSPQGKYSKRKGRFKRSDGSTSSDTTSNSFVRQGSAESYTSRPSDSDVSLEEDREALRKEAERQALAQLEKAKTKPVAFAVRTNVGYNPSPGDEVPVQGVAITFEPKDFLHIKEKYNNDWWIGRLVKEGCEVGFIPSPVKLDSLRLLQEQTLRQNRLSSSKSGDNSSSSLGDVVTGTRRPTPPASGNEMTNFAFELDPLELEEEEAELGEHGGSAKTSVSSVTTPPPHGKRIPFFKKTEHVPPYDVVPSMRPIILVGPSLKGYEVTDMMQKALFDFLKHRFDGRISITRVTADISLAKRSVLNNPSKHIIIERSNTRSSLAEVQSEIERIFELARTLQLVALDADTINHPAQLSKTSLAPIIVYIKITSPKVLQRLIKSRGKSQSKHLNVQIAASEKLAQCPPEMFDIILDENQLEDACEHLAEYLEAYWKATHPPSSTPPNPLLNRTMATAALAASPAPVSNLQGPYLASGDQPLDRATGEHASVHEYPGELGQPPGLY

B1: α1s II–III loop C region peptide (residues 720–765) (peptide, UniProt P07293 720-765, looked up)
peptide: LKVDEFESNVNEVKDPYPSADFPGDDEEDEPEIPVSPRPRPLAELQ
notes: DHPR α1s subunit, II-III loop C region, residues 720-765 of NP_001095190.1 (skeletal); also called α1s C; skeletal II-III loop C region; source: synthetic peptide
For orientation: Kd means the constant that tells how readily two partners part at equilibrium. Read a low Kd as tighter binding. Turning to B1, the figures for the equilibrium dissociation constant (Kd) in experiment [1] and in experiment [2] were 4.9 ± 0.6 µM and 3600 ± 600 nM, respectively.

B2: α1c II–III loop C region peptide (residues 851–895) (peptide, UniProt P15381-1 851-895, looked up)
peptide: INMDDLQPNESEDKSPYPNPETTGEEDEEEPEMPVGPRPRPLSEL
notes: DHPR α1c subunit (cardiac, CaV1.2), II-III loop C region, residues 851-895 of NP_001129994.1 (cardiac); also called α1c C; cardiac II-III loop C region; source: synthetic peptide
Take B2: the dissociation constant Kd in experiment [1] is 3.5 ± 0.4 µM; in experiment [2], 2500 ± 200 nM.

B3: DHPR α1s II-III loop (domain or fragment, UniProt P07293 666-791, looked up)
chain: EAESLTSAQKAKAEERKRRKMSRGLPDKTEEEKSVMAKKLEQKPKGEGIPTTAKLKVDEFESNVNEVKDPYPSADFPGDDEEDEPEIPVSPRPRPLAELQLKEKAVPIPEASSFFIFSPTNKVRVL
notes: DHPR α1s subunit (CaV1.1), cytoplasmic II-III loop, residues E666-L791 of NCBI X05921 (methods); the results say residues 666-790 of NP_001095190; Methods: E666-L791; results: 666-790; also called α1s DHPR II-III Loop; DHPR II-III loop; source: E. coli BL21, purified (Ni-agarose, ubiquitin removed, preparative electrophoresis); not shown: polyhistidine-tagged ubiquitin, N-terminal, cleaved
On to B3, for which the Kd was 2.5 ± 0.4 µM in experiment [1] and 2600 ± 200 nM in experiment [2].
